# Where “and” joins values, the source holds several entries; their conditions need not be identical. Equal values may be shown once.
# Assays:
# Test in all cases: fluorescence polarization
# Details in all cases: 10 mM Tris-HCl pH 7.5, 50 mM NaCl, no Mg2+, room temperature; FP: 1 nM duplex, 0.1 mg/mL BSA, 20 min; EMSA: 250 nM enzyme, 15 min, 6% gel
# R.Eco29kI wt = tested on: R.Eco29kI wt
# R.Eco29kI Y49A = tested on: R.Eco29kI Y49A
# R.Eco29kI R86A = tested on: R.Eco29kI R86A
sequence,measurement,setting,value
TTTTGGTACCGCGGCCGCAAGCTT (double strand) [24-bp duplex with Eco29kI site],Kd,R.Eco29kI wt,16 nM and 299 nM^n
same,Kd,R.Eco29kI Y49A,49 nM and 529 nM^n
same,Kd,R.Eco29kI R86A,21 nM and 344 nM^n

# Source: paper PMC1952068
